Data taken from patent publication US20260028383A1 (KINE BIOTECH, published 2026).
Where two headings read alike, the source gives them in different places.

T1: intermediate-affinity IL-2R (containing the β/γc-subunits of the IL-2R) expressed on HH cells (human, UniProt P14784 27-551; P31785 23-369)
T1 sequence (looked up) 1: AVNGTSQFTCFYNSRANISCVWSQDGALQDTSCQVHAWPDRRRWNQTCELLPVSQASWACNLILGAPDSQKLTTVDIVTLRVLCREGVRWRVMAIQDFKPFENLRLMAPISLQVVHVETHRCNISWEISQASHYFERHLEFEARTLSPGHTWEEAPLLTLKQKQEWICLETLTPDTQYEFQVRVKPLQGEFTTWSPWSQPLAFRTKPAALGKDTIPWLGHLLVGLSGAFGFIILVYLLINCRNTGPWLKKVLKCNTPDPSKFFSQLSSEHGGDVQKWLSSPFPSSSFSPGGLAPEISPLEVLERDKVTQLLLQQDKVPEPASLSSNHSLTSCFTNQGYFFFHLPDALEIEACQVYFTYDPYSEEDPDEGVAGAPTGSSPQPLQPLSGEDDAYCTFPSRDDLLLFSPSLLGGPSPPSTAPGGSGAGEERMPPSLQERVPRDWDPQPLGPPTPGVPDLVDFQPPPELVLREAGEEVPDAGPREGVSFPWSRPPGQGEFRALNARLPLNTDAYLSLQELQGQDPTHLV
T1 sequence (looked up) 2: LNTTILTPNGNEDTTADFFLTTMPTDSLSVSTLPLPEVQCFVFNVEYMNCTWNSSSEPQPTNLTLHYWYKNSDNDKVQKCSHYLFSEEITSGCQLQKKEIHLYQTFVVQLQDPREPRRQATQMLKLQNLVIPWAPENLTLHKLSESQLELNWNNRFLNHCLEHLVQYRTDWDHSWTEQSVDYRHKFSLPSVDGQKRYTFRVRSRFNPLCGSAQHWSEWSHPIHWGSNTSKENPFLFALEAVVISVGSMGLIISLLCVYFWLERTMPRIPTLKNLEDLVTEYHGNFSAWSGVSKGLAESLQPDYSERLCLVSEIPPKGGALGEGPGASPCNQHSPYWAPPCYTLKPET

T2: high-affinity IL-2R (containing the α/β/γc-subunits of the IL-2R) expressed on CTLL-2 cells (mouse, UniProt P01590 22-268; P16297 27-539; P34902 23-369)
T2 sequence (looked up) 1: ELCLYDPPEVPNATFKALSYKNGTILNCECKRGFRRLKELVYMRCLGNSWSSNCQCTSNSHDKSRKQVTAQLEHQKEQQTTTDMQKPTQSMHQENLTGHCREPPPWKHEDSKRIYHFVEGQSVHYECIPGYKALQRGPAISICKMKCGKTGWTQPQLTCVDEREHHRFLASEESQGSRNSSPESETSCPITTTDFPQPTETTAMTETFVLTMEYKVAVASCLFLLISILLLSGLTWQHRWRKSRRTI
T2 sequence (looked up) 2: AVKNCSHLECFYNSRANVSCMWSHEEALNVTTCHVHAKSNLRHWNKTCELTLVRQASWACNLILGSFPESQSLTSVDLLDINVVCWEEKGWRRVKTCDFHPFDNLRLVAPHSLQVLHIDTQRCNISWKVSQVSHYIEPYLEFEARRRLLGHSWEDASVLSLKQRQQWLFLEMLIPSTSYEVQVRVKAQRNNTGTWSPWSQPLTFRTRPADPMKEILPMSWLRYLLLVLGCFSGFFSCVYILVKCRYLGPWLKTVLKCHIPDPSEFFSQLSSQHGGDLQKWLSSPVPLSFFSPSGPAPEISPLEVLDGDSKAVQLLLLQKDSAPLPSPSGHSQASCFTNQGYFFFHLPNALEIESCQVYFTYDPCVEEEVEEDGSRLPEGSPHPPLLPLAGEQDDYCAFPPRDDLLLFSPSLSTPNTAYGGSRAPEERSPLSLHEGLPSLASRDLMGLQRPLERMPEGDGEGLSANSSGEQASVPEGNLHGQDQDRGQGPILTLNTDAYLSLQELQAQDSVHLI
T2 sequence (looked up) 3: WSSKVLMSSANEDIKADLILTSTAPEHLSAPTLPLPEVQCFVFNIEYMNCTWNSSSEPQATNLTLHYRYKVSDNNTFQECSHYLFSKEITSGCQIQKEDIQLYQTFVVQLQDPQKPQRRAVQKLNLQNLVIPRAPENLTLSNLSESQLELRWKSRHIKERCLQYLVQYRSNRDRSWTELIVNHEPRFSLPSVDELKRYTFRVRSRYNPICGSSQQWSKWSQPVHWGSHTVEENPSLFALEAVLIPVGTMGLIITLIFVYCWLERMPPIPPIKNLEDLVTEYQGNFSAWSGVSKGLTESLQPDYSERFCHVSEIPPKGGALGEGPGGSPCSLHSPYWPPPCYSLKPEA


How the values were obtained:
Test in all cases: cell-based or functional assay
[1] = biological target: high-affinity IL-2R (containing the α/β/γc-subunits of the IL-2R) expressed on CTLL-2 cells (mouse) (UniProt P01590)
[2] = biological target: high-affinity IL-2R (containing the α/β/γc-subunits of the IL-2R) expressed on CTLL-2 cells (mouse) (UniProt P01590); remark: listed apart in the source
[3] = biological target: T1, intermediate-affinity IL-2R (containing …)
[4] = biological target: T2, high-affinity IL-2R (containing the …)
[5] = biological target: T1, intermediate-affinity IL-2R (containing …); remark: listed apart in the source
[6] = biological target: T1, intermediate-affinity IL-2R (containing …); remark: listed apart in the source
[7] = biological target: T2, high-affinity IL-2R (containing the …); remark: listed apart in the source
[8] = biological target: T1, intermediate-affinity IL-2R (containing …); remark: listed apart in the source
[9] = biological target: T2, high-affinity IL-2R (containing the …); remark: listed apart in the source
[10] = biological target: T1, intermediate-affinity IL-2R (containing …); remark: listed apart in the source

EC50 (HH/CTLL-2): EC50 on HH cells (intermediate-affinity IL-2R) divided by EC50 on CTLL-2 cells (high-affinity IL-2R) [3] [ratio] | EC50 of pSTAT-5 induction in CTLL-2 cells (flow cytometry) [4] [nM] | EC50 of pSTAT-5 induction in HH cells (flow cytometry) [5] [nM] | Molecule | also measured
 |  |  | wild-type IL-2 (proleukin) (from UniProt P60568 21-153) (ligand) | EC50 of pSTAT-5 induction in CTLL-2 cells (flow cytometry) [1]: 0.231 nM; EC50 (CTLL-2): pSTAT-5 induction in CTLL-2 cells (flow cytometry) [2]: 0.2 nM; EC50 of pSTAT-5 induction in CTLL-2 cells (flow cytometry) [2]: 0.17 nM
0.22 | 44.1 | 9.6 | IL-2 variant IL-2_#3 (F42V, Y45A, L72N, C125G) (ligand) APTSSSTKKTQLQLEHLLLDLQMILNGINNYKNPKLTRMLTVKFAMPKKATELKHLQCLEEELKPLEEVLNNAQSKNFHLRPRDLISNINVIVLELKGSETTFMCEYADETATIVEFLNRWITFGQSIISTLT | 
 |  |  | mutant IL-2, IL-2v (AAG), with F42A, Y45A, and L72G substitutions of IL-2 (F. Hoffmann-La Roche Ltd) (ligand) APTSSSTKKTQLQLEHLLLDLQMILNGINNYKNPKLTRMLTAKFAMPKKATELKHLQCLEEELKPLEEVLNGAQSKNFHLRPRDLISNINVIVLELKGSETTFMCEYADETATIVEFLNRWITFCQSIISTLT | EC50 (HH): pSTAT-5 induction in HH cells (flow cytometry) [6]: 2.01 nM; EC50 (HH/CTLL-2): EC50 on HH cells (intermediate-affinity IL-2R) divided by EC50 on CTLL-2 cells (high-affinity IL-2R) [6]: 0.037 ratio; EC50 (CTLL-2): pSTAT-5 induction in CTLL-2 cells (flow cytometry) [7]: 54.1 nM
 |  |  | IL-2 variant IL-2_#28 (F42A, Y45D, L72D) (ligand) APTSSSTKKTQLQLEHLLLDLQMILNGINNYKNPKLTRMLTAKFDMPKKATELKHLQCLEEELKPLEEVLNDAQSKNFHLRPRDLISNINVIVLELKGSETTFMCEYADETATIVEFLNRWITFCQSIISTLT | EC50 (HH/CTLL-2): EC50 on HH cells (intermediate-affinity IL-2R) divided by EC50 on CTLL-2 cells (high-affinity IL-2R) [8]: 0.94 ratio; EC50 of pSTAT-5 induction in CTLL-2 cells (flow cytometry) [9]: 9.56 nM; EC50 of pSTAT-5 induction in HH cells (flow cytometry) [10]: 8.95 nM
0.24 | 2.32 | 0.556 | IL-2 variant IL-2_#12 (F42C, Y45N, L72V) (ligand) APTSSSTKKTQLQLEHLLLDLQMILNGINNYKNPKLTRMLTCKFNMPKKATELKHLQCLEEELKPLEEVLNVAQSKNFHLRPRDLISNINVIVLELKGSETTFMCEYADETATIVEFLNRWITFCQSIISTLT | 
1.79 | 10 | 17.9 | IL-2 variant IL-2_#9 (F42H, Y45D, L72I, C125G) (ligand) APTSSSTKKTQLQLEHLLLDLQMILNGINNYKNPKLTRMLTHKFDMPKKATELKHLQCLEEELKPLEEVLNIAQSKNFHLRPRDLISNINVIVLELKGSETTFMCEYADETATIVEFLNRWITFGQSIISTLT | 
0.75 | 120 | 90.2 | IL-2 variant IL-2_#8 (F42V, Y45S, L72N, C125G) (ligand) APTSSSTKKTQLQLEHLLLDLQMILNGINNYKNPKLTRMLTVKFSMPKKATELKHLQCLEEELKPLEEVLNNAQSKNFHLRPRDLISNINVIVLELKGSETTFMCEYADETATIVEFLNRWITFGQSIISTLT | 
 |  |  | IL-2 variant IL-2_#31 (F42A, Y45M, L72N) (ligand) APTSSSTKKTQLQLEHLLLDLQMILNGINNYKNPKLTRMLTAKFMMPKKATELKHLQCLEEELKPLEEVLNNAQSKNFHLRPRDLISNINVIVLELKGSETTFMCEYADETATIVEFLNRWITFCQSIISTLT | EC50 (HH/CTLL-2): EC50 on HH cells (intermediate-affinity IL-2R) divided by EC50 on CTLL-2 cells (high-affinity IL-2R) [8]: 0.05 ratio; EC50 of pSTAT-5 induction in CTLL-2 cells (flow cytometry) [9]: 2.02 nM; EC50 of pSTAT-5 induction in HH cells (flow cytometry) [10]: 0.11 nM
